Assay results as given in patent US20260176319A1 (KALLYOPE, published 2026).
Starred links: 1 amine or outer side, 2 acyl side, 3 side chain; linkers in the order of their positions; H or OH if unused. Non-standard residues stand in square brackets, D forms with d. No end group written: not given here. *: point of attachment. Trp(7-Me) = Cc1cccc2c(C[C@H](N)C(=O)O)c[nH]c12; C20 diacid = O=C(O)CCCCCCCCCCCCCCCCCCC(=O)*; d(γGlu) = O=C(O)[C@@H](CCC(=O)[*:2])N[*:1]; C18 diacid = O=C(O)CCCCCCCCCCCCCCCCC(=O)*; γGlu = O=C(O)[C@H](CCC(=O)[*:2])N[*:1]; Palmitoyl = CCCCCCCCCCCCCCCC(=O)*; 3Pal = N[C@@H](Cc1cccnc1)C(=O)O; Nle = CCCC[C@H](N)C(=O)O; AEEA = NCCOCCOCC(=O)O; Aib = CC(C)(N)C(=O)O; βAla = NCCC(=O)O

B1: Peptide 245 (peptide)
peptide: {C20 diacid}-[γGlu][γGlu][AEEA][AEEA][dF]N[3Pal]WAV[βAla]HL[Nle]-NH2
SMILES: CCCC[C@H](NC(=O)[C@H](CC(C)C)NC(=O)[C@H](Cc1c[nH]cn1)NC(=O)CCNC(=O)[C@@H](NC(=O)[C@H](C)NC(=O)[C@H](Cc1c[nH]c2ccccc12)NC(=O)[C@H](Cc1cccnc1)NC(=O)[C@H](CC(N)=O)NC(=O)[C@@H](Cc1ccccc1)NC(=O)COCCOCCNC(=O)COCCOCCNC(=O)CC[C@H](NC(=O)CC[C@H](NC(=O)CCCCCCCCCCCCCCCCCCC(=O)O)C(=O)O)C(=O)O)C(C)C)C(N)=O
B2: Peptide 161 (peptide)
peptide: {C18 diacid}-[γGlu][AEEA][AEEA][dF]QHWAV[dA]HL[Nle]-NH2
SMILES: CCCC[C@H](NC(=O)[C@H](CC(C)C)NC(=O)[C@H](Cc1c[nH]cn1)NC(=O)[C@@H](C)NC(=O)[C@@H](NC(=O)[C@H](C)NC(=O)[C@H](Cc1c[nH]c2ccccc12)NC(=O)[C@H](Cc1c[nH]cn1)NC(=O)[C@H](CCC(N)=O)NC(=O)[C@@H](Cc1ccccc1)NC(=O)COCCOCCNC(=O)COCCOCCNC(=O)CC[C@H](NC(=O)CCCCCCCCCCCCCCCCC(=O)O)C(=O)O)C(C)C)C(N)=O
B3: Peptide 244 (peptide)
peptide: {C20 diacid}-[γGlu][γGlu][AEEA][AEEA]GRHWAV[dA]HL[Nle]-NH2
SMILES: CCCC[C@H](NC(=O)[C@H](CC(C)C)NC(=O)[C@H](Cc1c[nH]cn1)NC(=O)[C@@H](C)NC(=O)[C@@H](NC(=O)[C@H](C)NC(=O)[C@H](Cc1c[nH]c2ccccc12)NC(=O)[C@H](Cc1c[nH]cn1)NC(=O)[C@H](CCCNC(=N)N)NC(=O)CNC(=O)COCCOCCNC(=O)COCCOCCNC(=O)CC[C@H](NC(=O)CC[C@H](NC(=O)CCCCCCCCCCCCCCCCCCC(=O)O)C(=O)O)C(=O)O)C(C)C)C(N)=O
B4: Peptide 247 (peptide)
peptide: {C20 diacid}-[γGlu][γGlu][AEEA][AEEA]GEH[Trp(7-Me)]AV[BABA]HL[Nle]-NH2
B5: Peptide 163 (peptide)
peptide: {C20 diacid}-[γGlu]RRHWAV[dA]HL[Nle]
B6: Peptide 166 (peptide)
peptide: {C18 diacid}-[γGlu][AEEA][AEEA]GRHWAV[dA]HL[Nle]
B7: Peptide 160 (peptide)
peptide: {C20 diacid}-[γGlu]GNHWAV[dA][dH]L[Nle]-NH2
SMILES: CCCC[C@H](NC(=O)[C@H](CC(C)C)NC(=O)[C@@H](Cc1c[nH]cn1)NC(=O)[C@@H](C)NC(=O)[C@@H](NC(=O)[C@H](C)NC(=O)[C@H](Cc1c[nH]c2ccccc12)NC(=O)[C@H](Cc1c[nH]cn1)NC(=O)[C@H](CC(N)=O)NC(=O)CNC(=O)CC[C@H](NC(=O)CCCCCCCCCCCCCCCCCCC(=O)O)C(=O)O)C(C)C)C(N)=O
B8: Peptide 248 (peptide)
peptide: {C20 diacid}-[γGlu][γGlu][AEEA][AEEA]E[dS]EH[Trp(7-Me)]AV[βAla]HL[Nle]-NH2
SMILES: CCCC[C@H](NC(=O)[C@H](CC(C)C)NC(=O)[C@H](Cc1c[nH]cn1)NC(=O)CCNC(=O)[C@@H](NC(=O)[C@H](C)NC(=O)[C@H](Cc1c[nH]c2c(C)cccc12)NC(=O)[C@H](Cc1c[nH]cn1)NC(=O)[C@H](CCC(=O)O)NC(=O)[C@@H](CO)NC(=O)[C@H](CCC(=O)O)NC(=O)COCCOCCNC(=O)COCCOCCNC(=O)CC[C@H](NC(=O)CC[C@H](NC(=O)CCCCCCCCCCCCCCCCCCC(=O)O)C(=O)O)C(=O)O)C(C)C)C(N)=O
B9: Peptide 252 (peptide)
peptide: {C20 diacid}-[γGlu][γGlu][AEEA][AEEA]EGRH[Trp(7-Me)]AV[βAla]HL[Nle]-NH2
SMILES: CCCC[C@H](NC(=O)[C@H](CC(C)C)NC(=O)[C@H](Cc1c[nH]cn1)NC(=O)CCNC(=O)[C@@H](NC(=O)[C@H](C)NC(=O)[C@H](Cc1c[nH]c2c(C)cccc12)NC(=O)[C@H](Cc1c[nH]cn1)NC(=O)[C@H](CCCNC(=N)N)NC(=O)CNC(=O)[C@H](CCC(=O)O)NC(=O)COCCOCCNC(=O)COCCOCCNC(=O)CC[C@H](NC(=O)CC[C@H](NC(=O)CCCCCCCCCCCCCCCCCCC(=O)O)C(=O)O)C(=O)O)C(C)C)C(N)=O
B10: Peptide 164 (peptide)
peptide: {C20 diacid}-[γGlu]GNHWAV[dA]HL[Nle]
B11: Peptide 242 (peptide)
peptide: {C20 diacid}-[γGlu][AEEA][AEEA]GRH[Trp(7-Me)]AV[βAla]HL[Nle]-NH2
SMILES: CCCC[C@H](NC(=O)[C@H](CC(C)C)NC(=O)[C@H](Cc1c[nH]cn1)NC(=O)CCNC(=O)[C@@H](NC(=O)[C@H](C)NC(=O)[C@H](Cc1c[nH]c2c(C)cccc12)NC(=O)[C@H](Cc1c[nH]cn1)NC(=O)[C@H](CCCNC(=N)N)NC(=O)CNC(=O)COCCOCCNC(=O)COCCOCCNC(=O)CC[C@H](NC(=O)CCCCCCCCCCCCCCCCCCC(=O)O)C(=O)O)C(C)C)C(N)=O
B12: Peptide 167 (peptide)
peptide: {C20 diacid}-[γGlu][AEEA][AEEA]GRHWAV[dA]HL[Nle]
B13: Peptide 241 (peptide)
peptide: {C20 diacid}-[γGlu][AEEA][AEEA]GQHWAV[βAla]HL[Nle]-NH2
SMILES: CCCC[C@H](NC(=O)[C@H](CC(C)C)NC(=O)[C@H](Cc1c[nH]cn1)NC(=O)CCNC(=O)[C@@H](NC(=O)[C@H](C)NC(=O)[C@H](Cc1c[nH]c2ccccc12)NC(=O)[C@H](Cc1c[nH]cn1)NC(=O)[C@H](CCC(N)=O)NC(=O)CNC(=O)COCCOCCNC(=O)COCCOCCNC(=O)CC[C@H](NC(=O)CCCCCCCCCCCCCCCCCCC(=O)O)C(=O)O)C(C)C)C(N)=O
B14: Peptide 243 (peptide)
peptide: {C18 diacid}-[γGlu][γGlu][AEEA][AEEA]GRHWAV[βAla]HL[Nle]-NH2
SMILES: CCCC[C@H](NC(=O)[C@H](CC(C)C)NC(=O)[C@H](Cc1c[nH]cn1)NC(=O)CCNC(=O)[C@@H](NC(=O)[C@H](C)NC(=O)[C@H](Cc1c[nH]c2ccccc12)NC(=O)[C@H](Cc1c[nH]cn1)NC(=O)[C@H](CCCNC(=N)N)NC(=O)CNC(=O)COCCOCCNC(=O)COCCOCCNC(=O)CC[C@H](NC(=O)CC[C@H](NC(=O)CCCCCCCCCCCCCCCCC(=O)O)C(=O)O)C(=O)O)C(C)C)C(N)=O
B15: Peptide 240 (peptide)
peptide: EEXXGNHWAVGHLX
modifications: Palmitoyl-γGlu-γGlu-OEG-OEG-Gly-Asn-His-Trp-Ala-Val-Gly-His-Leu-Nle-NH2
B16: Peptide 159 (peptide)
peptide: {C18 diacid}-[γGlu][AEEA][AEEA]GNHWAV[dA][dH]L[Nle]-NH2
SMILES: CCCC[C@H](NC(=O)[C@H](CC(C)C)NC(=O)[C@@H](Cc1c[nH]cn1)NC(=O)[C@@H](C)NC(=O)[C@@H](NC(=O)[C@H](C)NC(=O)[C@H](Cc1c[nH]c2ccccc12)NC(=O)[C@H](Cc1c[nH]cn1)NC(=O)[C@H](CC(N)=O)NC(=O)CNC(=O)COCCOCCNC(=O)COCCOCCNC(=O)CC[C@H](NC(=O)CCCCCCCCCCCCCCCCC(=O)O)C(=O)O)C(C)C)C(N)=O
B17: Peptide 13 (peptide)
peptide: Palmitoyl-[d(γGlu)][AEEA][AEEA]GNH[Trp(7-Me)]AV[dA]HL[Nle]-NH2
SMILES: CCCCCCCCCCCCCCCC(=O)N[C@H](CCC(=O)NCCOCCOCC(=O)NCCOCCOCC(=O)NCC(=O)N[C@@H](CC(N)=O)C(=O)N[C@@H](Cc1c[nH]cn1)C(=O)N[C@@H](Cc1c[nH]c2c(C)cccc12)C(=O)N[C@@H](C)C(=O)N[C@H](C(=O)N[C@H](C)C(=O)N[C@@H](Cc1c[nH]cn1)C(=O)N[C@@H](CC(C)C)C(=O)N[C@@H](CCCC)C(N)=O)C(C)C)C(=O)O
B18: Peptide 251 (peptide)
peptide: {C20 diacid}-[γGlu][γGlu][AEEA][AEEA]GQHWAV[βAla]HL[Nle]-NH2
SMILES: CCCC[C@H](NC(=O)[C@H](CC(C)C)NC(=O)[C@H](Cc1c[nH]cn1)NC(=O)CCNC(=O)[C@@H](NC(=O)[C@H](C)NC(=O)[C@H](Cc1c[nH]c2ccccc12)NC(=O)[C@H](Cc1c[nH]cn1)NC(=O)[C@H](CCC(N)=O)NC(=O)CNC(=O)COCCOCCNC(=O)COCCOCCNC(=O)CC[C@H](NC(=O)CC[C@H](NC(=O)CCCCCCCCCCCCCCCCCCC(=O)O)C(=O)O)C(=O)O)C(C)C)C(N)=O
B19: Peptide 165 (peptide)
peptide: {C20 diacid}-[γGlu]GQHWAV[dA]HL[Nle]-NH2
SMILES: CCCC[C@H](NC(=O)[C@H](CC(C)C)NC(=O)[C@H](Cc1c[nH]cn1)NC(=O)[C@@H](C)NC(=O)[C@@H](NC(=O)[C@H](C)NC(=O)[C@H](Cc1c[nH]c2ccccc12)NC(=O)[C@H](Cc1c[nH]cn1)NC(=O)[C@H](CCC(N)=O)NC(=O)CNC(=O)CC[C@H](NC(=O)CCCCCCCCCCCCCCCCCCC(=O)O)C(=O)O)C(C)C)C(N)=O
B20: Peptide 14 (peptide)
peptide: Palmitoyl-[d(γGlu)][AEEA][AEEA]GNH[Trp(7-Me)][Aib]V[dA]HL[Nle]-NH2
SMILES: CCCCCCCCCCCCCCCC(=O)N[C@H](CCC(=O)NCCOCCOCC(=O)NCCOCCOCC(=O)NCC(=O)N[C@@H](CC(N)=O)C(=O)N[C@@H](Cc1c[nH]cn1)C(=O)N[C@@H](Cc1c[nH]c2c(C)cccc12)C(=O)NC(C)(C)C(=O)N[C@H](C(=O)N[C@H](C)C(=O)N[C@@H](Cc1c[nH]cn1)C(=O)N[C@@H](CC(C)C)C(=O)N[C@@H](CCCC)C(N)=O)C(C)C)C(=O)O
B21: Peptide 162 (peptide)
peptide: {C20 diacid}-[γGlu]GRHWAV[dA]HL[Nle]

What follows are binders tested against human GRP receptor (human, UniProt P30550 1-384) (assay: cell-based or functional assay).
human GRP receptor, sequence (P30550 whole entry): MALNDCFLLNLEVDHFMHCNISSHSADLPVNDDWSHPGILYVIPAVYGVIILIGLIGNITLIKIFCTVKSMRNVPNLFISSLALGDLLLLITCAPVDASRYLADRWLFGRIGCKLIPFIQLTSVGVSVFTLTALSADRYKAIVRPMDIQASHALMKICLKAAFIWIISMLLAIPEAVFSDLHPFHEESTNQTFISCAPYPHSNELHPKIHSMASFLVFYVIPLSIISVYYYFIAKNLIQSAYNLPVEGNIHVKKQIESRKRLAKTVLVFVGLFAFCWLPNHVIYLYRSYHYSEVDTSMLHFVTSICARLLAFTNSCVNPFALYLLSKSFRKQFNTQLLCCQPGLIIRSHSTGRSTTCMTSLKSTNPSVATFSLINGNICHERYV

In order of falling “hIP1 GRPR EC50” value:
1. B6  248 nM
2. B10  125 nM
3. B12  114 nM
4. B16  101 nM
5. B5  88.5 nM
6. B7  31.5 nM
7. B2  21.4 nM
8. B21  19.6 nM
9. B1  11.9 nM
10. B15  11.9 nM
11. B20  10.8 nM
12. B8  10.5 nM
13. B9  7.5 nM
14. B18  4.4 nM
15. B11  3.9 nM
16. B14  3.6 nM
17. B3  2.8 nM
18. B13  2 nM
19. B4  1.8 nM
20. B19  1.55 nM
21. B17  1.08 nM
